Source: article PMC12416549 (2024)
Changes are numbered by the printed parent chain. Numbers in names are those of the source.

T1: TNFR1 (Homo sapiens, UniProt P19438)
T1 chain: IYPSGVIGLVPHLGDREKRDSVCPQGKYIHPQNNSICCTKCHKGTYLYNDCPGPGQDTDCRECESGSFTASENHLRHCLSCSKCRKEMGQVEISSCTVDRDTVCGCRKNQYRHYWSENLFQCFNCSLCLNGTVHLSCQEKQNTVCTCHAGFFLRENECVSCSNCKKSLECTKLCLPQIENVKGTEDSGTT

B1: L74H (designed binder)
chain: MTLQELLREEALRRAEAEAFRYALELLAEKFPEQKEYLLDLAEEIESQIRSLSGVDVEDVRKFLDKEWAWVKEHLAEHPAELAEVEAARAARLAELRAEVEAKVAA
B2: R92A (designed binder)
chain: B1 chain with H74L, R92A
B3: E81C (designed binder)
chain: B1 chain with H74L, E81C
B4: E43V (designed binder)
chain: B1 chain with E43V, H74L
B5: A80W (designed binder)
chain: B1 chain with H74L, A80W
B6: A19C (designed binder)
chain: B1 chain with A19C, H74L
B7: S51T (designed binder)
chain: B1 chain with S51T, H74L
B8: S53R (designed binder)
chain: B1 chain with S53R, H74L
B9: E95D (designed binder)
chain: B1 chain with H74L, E95D
B10: Q48R (designed binder)
chain: B1 chain with Q48R, H74L
B11: L3Q (designed binder)
chain: B1 chain with L3Q, H74L
B12: E58D (designed binder)
chain: B1 chain with E58D, H74L
B13: R21L (designed binder)
chain: B1 chain with R21L, H74L
B14: E99Y (designed binder)
chain: B1 chain with H74L, E99Y
B15: E18A (designed binder)
chain: B1 chain with E18A, H74L
B16: D59G (designed binder)
chain: B1 chain with D59G, H74L
B17: Y22L (designed binder)
chain: B1 chain with Y22L, H74L
B18: I49P (designed binder)
chain: B1 chain with I49P, H74L
B19: E58A (designed binder)
chain: B1 chain with E58A, H74L
B20: K35P (designed binder)
chain: B1 chain with K35P, H74L
B21: R50C (designed binder)
chain: B1 chain with R50C, H74L
B22: A69L (designed binder)
chain: B1 chain with A69L, H74L
B23: L6F (designed binder)
chain: B1 chain with L6F, H74L
B24: A42T (designed binder)
chain: B1 chain with A42T, H74L
B25: A42F (designed binder)
chain: B1 chain with A42F, H74L
B26: D65R (designed binder)
chain: B1 chain with D65R, H74L
B27: E5K (designed binder)
chain: B1 chain with E5K, H74L
B28: A87C (designed binder)
chain: B1 chain with H74L, A87C
B29: W70M (designed binder)
chain: B1 chain with W70M, H74L
B30: A83M (designed binder)
chain: B1 chain with H74L, A83M
B31: Q4W (designed binder)
chain: B1 chain with Q4W, H74L
B32: E81M (designed binder)
chain: B1 chain with H74L, E81M
B33: A90H (designed binder)
chain: B1 chain with H74L, A90H
B34: L82P (designed binder)
chain: B1 chain with H74L, L82P
B35: E99A (designed binder)
chain: B1 chain with H74L, E99A
B36: L39W (designed binder)
chain: B1 chain with L39W, H74L
B37: Y22F (designed binder)
chain: B1 chain with Y22F, H74L
B38: S53A (designed binder)
chain: B1 chain with S53A, H74L
B39: F20D (designed binder)
chain: B1 chain with F20D, H74L
B40: A76V (designed binder)
chain: B1 chain with H74L, A76V
B41: L41A (designed binder)
chain: B1 chain with L41A, H74L
B42: S51W (designed binder)
chain: B1 chain with S51W, H74L
B43: E77I (designed binder)
chain: B1 chain with H74L, E77I

Biological target: T1, TNFR1
Test: yeast display SC50

Row | Binder | apparent Kd (screen) [nM]
1 | B1 | 0.79
2 | B2 | 0.956
3 | B3 | 0.79
4 | B4 | 0.539
5 | B5 | 0.446
6 | B6 | 0.49
7 | B7 | 0.405
8 | B8 | 2.05
9 | B9 | 0.593
10 | B10 | 1.86
11 | B11 | 22.2
12 | B12 | 0.539
13 | B13 | 0.653
14 | B14 | 0.718
15 | B15 | 0.718
16 | B16 | 0.653
17 | B17 | 0.718
18 | B18 | 24.4
19 | B19 | 0.718
20 | B20 | 2.73
21 | B21 | 0.539
22 | B22 | 0.49

Row | Binder | apparent Kd (screen) [nM]
23 | B23 | 2.05
24 | B24 | 1.05
25 | B25 | 3.3
26 | B26 | 0.718
27 | B27 | 0.539
28 | B28 | 0.446
29 | B29 | 13.8
30 | B30 | 0.593
31 | B31 | 0.539
32 | B32 | 0.593
33 | B33 | 0.869
34 | B34 | 5.84
35 | B35 | 1.27
36 | B36 | 0.869
37 | B37 | 0.49
38 | B38 | 0.956
39 | B39 | 11.4
40 | B40 | 0.539
41 | B41 | 2.48
42 | B42 | 0.446
43 | B43 | 1.27
